Publication PMC5523840

Molecular target: T1, TFCP2 (LBP-1c/CP2/LSF) (UniProt Q12800 1-502)
T1 sequence: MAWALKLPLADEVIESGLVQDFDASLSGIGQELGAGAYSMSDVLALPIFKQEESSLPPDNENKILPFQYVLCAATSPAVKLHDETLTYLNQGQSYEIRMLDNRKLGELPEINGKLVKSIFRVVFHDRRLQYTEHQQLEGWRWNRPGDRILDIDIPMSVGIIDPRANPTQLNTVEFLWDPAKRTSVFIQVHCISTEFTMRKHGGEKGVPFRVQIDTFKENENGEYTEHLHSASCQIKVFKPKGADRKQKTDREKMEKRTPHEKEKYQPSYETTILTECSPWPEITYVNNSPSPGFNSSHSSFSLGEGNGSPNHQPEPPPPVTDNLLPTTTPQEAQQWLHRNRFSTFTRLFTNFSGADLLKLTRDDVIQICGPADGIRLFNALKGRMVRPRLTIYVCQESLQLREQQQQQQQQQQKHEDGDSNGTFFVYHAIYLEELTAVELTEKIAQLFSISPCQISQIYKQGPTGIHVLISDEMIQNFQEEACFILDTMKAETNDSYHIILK
Assay: EMSA

B1: rs2830077[A] (dsDNA)
DNA 1: GACACGCTGACTTCCAGGCAAAAGCCAGGCACAAGAGAAGC
DNA 2: GCTTCTCTTGTGCCTGGCTTTTGCCTGGAAGTCAGCGTGTC
For B1, the binding signal was 1 fold band intensity (reference for the C allele, 46% greater).
